B1: 85 (antibody, V domains shown)
VL: DIQMTQSPSSLSASVGDRVTITCRASENIYRNLAWYQQKPGKAPKLLLYAATNLADGVPSRFSGSGSGTDYTLTISSLQSEDFATYYCQHFWGTPWTFGQGTKVEIK
VH: QVQLVQSGSELKKPGASVKVSCKASGYTFTDYSMHWVRQAPGQGLKWMGWINTETGEPTYADDFKGRFVFSLDTSVSTAYLQISSLKAEDTAVYYCARIPLYYYGSRYWYFDVWGQGTTVTVSS
modifications: constant regions without entry; synthetic humanized antibody light chain variable region sequence; synthetic humanized antibody heavy chain variable region sequence
B2: 87 (antibody, V domains shown)
VL: B1 VL with K45Q, S80P
VH: B1 VH with K46E, D62Q, D63G, K65T
modifications: constant regions without entry; synthetic humanized antibody light chain variable region sequence; synthetic humanized antibody heavy chain variable region sequence
B3: 88 (antibody, V domains shown)
VL: B1 VL with K45Q, S80P
VH: B1 VH with D62Q, D63G, K65T
modifications: constant regions without entry; synthetic humanized antibody light chain variable region sequence; synthetic humanized antibody heavy chain variable region sequence
B4: 86 (antibody, V domains shown)
VL: B1 VL
VH: B1 VH with V2I
modifications: constant regions without entry; synthetic humanized antibody light chain variable region sequence; synthetic humanized antibody heavy chain variable region sequence
B5: 90 (antibody, V domains shown)
VL: B1 VL with K45Q, S80P
VH: B1 VH with K46E
modifications: constant regions without entry; synthetic humanized antibody light chain variable region sequence; synthetic humanized antibody heavy chain variable region sequence
B6: 89 (antibody, V domains shown)
VL: B1 VL with K45Q, S80P
VH: B1 VH with V2I, D62Q, D63G, K65T
modifications: constant regions without entry; synthetic humanized antibody light chain variable region sequence; synthetic humanized antibody heavy chain variable region sequence
B7: 91 (antibody, V domains shown)
VL: B1 VL with K45Q, S80P
VH: B1 VH
modifications: constant regions without entry; synthetic humanized antibody light chain variable region sequence; synthetic humanized antibody heavy chain variable region sequence

Where a chain is given by its changes, count along the chain named.

T1 sequence (P54764 20-547): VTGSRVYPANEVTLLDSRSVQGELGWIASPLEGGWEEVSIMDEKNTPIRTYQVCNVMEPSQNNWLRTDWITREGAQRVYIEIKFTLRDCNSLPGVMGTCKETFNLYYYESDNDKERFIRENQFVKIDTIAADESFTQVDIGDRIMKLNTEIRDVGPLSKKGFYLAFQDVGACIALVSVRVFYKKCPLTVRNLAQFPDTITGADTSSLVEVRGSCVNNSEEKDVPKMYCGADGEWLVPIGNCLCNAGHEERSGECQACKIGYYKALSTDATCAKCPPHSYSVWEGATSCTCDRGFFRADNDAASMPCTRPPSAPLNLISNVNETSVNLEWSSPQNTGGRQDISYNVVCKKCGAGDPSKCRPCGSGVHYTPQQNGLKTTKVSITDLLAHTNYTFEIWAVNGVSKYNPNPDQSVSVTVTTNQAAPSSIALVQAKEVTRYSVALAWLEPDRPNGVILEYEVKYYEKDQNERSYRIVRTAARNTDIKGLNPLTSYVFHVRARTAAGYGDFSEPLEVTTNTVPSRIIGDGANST

One assay has as its target T1, human EphA4 (Homo sapiens, UniProt P54764).
T1 construct: made in house; not restated for the human SEAP-His protein
Kind of assay: Affinity of humanized antibodies by SPR (Biacore T200). Type of assay: binding. The following applies: human EphA4 extracellular region-SEAP-His; 1:1 binding model. The protocol: The binding affinity of each anti-EphA4 monoclonal humanized antibody obtained in Example 16 for human EphA4 was determined by surface plasmon resonance (SPR) using Biacore T200 (GE Healthcare). First, for the assay of antibody A, a rat anti-mouse IgG1 antibody produced with a conventional method by immunizing rat with mouse IgG1 antibody was immobilized on sensor chip CM5. The immobilization of the rat anti-mouse IgG1 antibody on sensor chip CM5 was performed by the amine coupling method using N-hydroxysuccinimide (NHS) and N-ethyl-N′-(3-dimethylaminopropyl)carbodiimide hydrochloride (EDC). Ethanolamine was used in blocking (the sensor chip and the reagents for immobilization were all manufactured by GE Healthcare). The antibody was diluted with a buffer solution for immobilization (10 mM sodium acetate, pH 4.5) and immobilized on the sensor chip according to the protocol attached to Biacore T200. For the assay of each humanized monoclonal antibody, a protein A chip (GE Healthcare, 29-1383-03) was used. Antibody A or the humanized monoclonal antibody was diluted with a running buffer solution HBS-EP (GE Healthcare), injected onto only flow cell 2 for 120 seconds, and captured (captured amount: approximately 30 to 60 RU). Subsequently, human EphA4 extracellular region-SEAP-His protein serially diluted in the range of 50, 16.7, 5.6, 1.9, and 0.6 nM using HBS-EP was sequentially added from the lower toward higher concentration sides without regeneration operation. Binding reaction curves were sequentially observed at the time of the addition (association phase, for 120 sec) and after the completion of the addition (dissociation phase, for 900 sec). After the completion of each observation, the sensor chip was regenerated by the addition of 3 M MgCl2 (for 60 sec) or 10 mM Glycine-HCl pH 1.5 (for 30 sec). The obtained binding reaction curves were subjected to fitting analysis with 1:1 binding models using software BIA evaluation attached to the system to calculate the affinity (KD=kd/ka) for human EphA4 (Table 6).
B1 yielded a ka of 310000 M⁻¹ s⁻¹ and a kd of 0.0005 s⁻¹.
For B2, in that order: 350000 M⁻¹ s⁻¹ and 0.00051 s⁻¹.
Regarding B3, the ka is 300000 M⁻¹ s⁻¹ and the kd was determined as 0.00042 s⁻¹.
The corresponding values for B4 are 310000 M⁻¹ s⁻¹ and 0.00046 s⁻¹.
In turn, B5 came in with a ka of 360000 M⁻¹ s⁻¹ and a kd of 0.00055 s⁻¹.
For B6, in that order: 310000 M⁻¹ s⁻¹ and 0.00041 s⁻¹.
The corresponding values for B7 are 330000 M⁻¹ s⁻¹ and 0.00044 s⁻¹.

Staying with this assay, now noted: human EphA4 extracellular region-SEAP-His; KD=kd/ka.
With B1, the Kd amounted to 1.6 nM.
Molecule B2 gave a Kd of 1.5 nM. This Kd and that of the molecule before are within 1.5-fold of each other.
The same measure, in the same setting: the figure for B3 is 1.4 nM; for B4 it is 1.5 nM.
Same read-out and setting: with B5 the figure was 1.5 nM; with B6, 1.3 nM; with B7, 1.3 nM.

Another assay deals with T2, human EphA2 (Homo sapiens, UniProt P29317).
T2 construct: a protein of the extracellular region of each human Eph receptor fused with the SEAP protein and the His tag; made in house; host or cells: Expi293F cells (culture supernatant)
T2 sequence (P29317 24-537 limits assumed): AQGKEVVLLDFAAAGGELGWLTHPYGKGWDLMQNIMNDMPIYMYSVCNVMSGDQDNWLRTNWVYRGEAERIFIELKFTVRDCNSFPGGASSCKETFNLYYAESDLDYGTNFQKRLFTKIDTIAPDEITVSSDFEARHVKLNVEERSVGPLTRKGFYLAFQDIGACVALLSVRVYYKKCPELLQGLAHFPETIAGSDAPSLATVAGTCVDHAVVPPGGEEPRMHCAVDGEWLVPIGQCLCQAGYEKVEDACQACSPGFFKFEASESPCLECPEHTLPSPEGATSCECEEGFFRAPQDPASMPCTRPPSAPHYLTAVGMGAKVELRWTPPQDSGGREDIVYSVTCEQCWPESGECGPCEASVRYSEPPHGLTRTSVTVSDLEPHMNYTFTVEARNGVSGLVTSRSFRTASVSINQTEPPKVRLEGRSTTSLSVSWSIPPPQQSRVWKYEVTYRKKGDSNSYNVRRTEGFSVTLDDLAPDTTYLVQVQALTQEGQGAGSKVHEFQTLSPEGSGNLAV
Kind of assay: Selectivity ELISA of humanized antibodies for human Eph receptor. Format: binding. To be noted: coated protein 1 nM. The source says: (§1) According to the method described in Example 7, a DNA sequence encoding the signal sequence and the extracellular region of each human Eph receptor (EphA1, EphA2, EphA3, EphA4, EphA5, EphA6, EphA7, EphA8, EphA10, EphB1, EphB2, EphB3, EphB4, and EphB6) was amplified by RT-PCR using tissue-derived total RNA and cloned into a pENTR1A vector (Invitrogen/Life Technologies) having a DNA sequence encoding SEAP protein and histidine tag. Next, the DNA sequence encoding the signal sequence and the extracellular region of each human Eph receptor, SEAP protein, and histidine tag was transferred to a pcDNA3.1_rfcB vector through LR reaction using Gateway System (Invitrogen/Life Technologies) to construct a vector for the expression of a protein of the extracellular region of each human Eph receptor fused with the SEAP protein and the His tag (referred to as “Eph receptor extracellular region-SEAP-His protein”) (this vector is referred to as “Eph receptor extracellular region-SEAP-His protein expression vector”).
(§2) Next, each human Eph receptor extracellular region-SEAP-His protein expression vector was transferred to Expi293F cells (Gibco/Thermo Fisher Scientific) using Expi293 expression system (Gibco/Thermo Fisher Scientific). After incubation (5% CO2, 37° C.) for 5 days, the culture supernatant was recovered and centrifuged at 1500 rpm at room temperature for 5 minutes. The centrifugation supernatant was filtered through a 0.45-μm filter (Merck Millipore).
(§3) Each anti-EphA4 monoclonal humanized antibody obtained in Example 16 was evaluated for its binding activity against each human Eph receptor according to the following steps.
(§4) Each well of a 96-well plate (Nunc) was coated with a rabbit anti-6-His antibody (Bethyl Laboratories). Each well was […] After washing with 0.05% Tween 20/PBS (Nacalai Tesque) three times, the SEAP-His protein of human EphA1, EphA2, EphA3, EphA4, EphA5, EphA6, EphA7, EphA8, EphA10, EphB1, EphB2, EphB3, EphB4, or EphB6 was added (final concentration: 1 nM) to each well and incubated at room temperature for 1 hour. After washing three times, the humanized antibody was added to each well and incubated at room temperature for 1 hour. After washing three times, a horseradish peroxidase-labeled donkey […] IgG antibody (Jackson ImmunoResearch Laboratories) was added thereto and incubated at room temperature for 1 hour. After washing three times, TMB Microwell Peroxidase Substrate System (Kirkegaard & Perry Laboratories (KPL)) was added to each well. After confirmation of moderate color development, an equal amount of a reaction stopping solution (1N H2SO4, Wako Pure Chemical Industries) was added to each well. The absorbance at 450 nm was read using a microplate reader (Thermo Fisher Scientific).
As to B1, the “hEphA2-SEAP-: absorbance at 450 nm, percentage with respect to hEphA4-SEAP-His as 100%” value worked out at 5.1%.
The same measure, in the same setting: the figure for B2 is 5.4%.
Same read-out and setting: with B3 the figure was 5.8%; with B4, 5.7%.
The same measure, in the same setting: with B5 the figure was 5.2%.
On to B6, for which the “hEphA2-SEAP-: absorbance at 450 nm, percentage with respect to hEphA4-SEAP-His as 100%” value was 5.6%.
Still for that read-out and setting: the figure for B7 is 6.1%.

The next assay has as its target T3, human EphA6 (Homo sapiens, UniProt Q9UF33).
T3 construct: a protein of the extracellular region of each human Eph receptor fused with the SEAP protein and the His tag; made in house; host or cells: Expi293F cells (culture supernatant)
T3 sequence (Q9UF33 23-550 limits assumed): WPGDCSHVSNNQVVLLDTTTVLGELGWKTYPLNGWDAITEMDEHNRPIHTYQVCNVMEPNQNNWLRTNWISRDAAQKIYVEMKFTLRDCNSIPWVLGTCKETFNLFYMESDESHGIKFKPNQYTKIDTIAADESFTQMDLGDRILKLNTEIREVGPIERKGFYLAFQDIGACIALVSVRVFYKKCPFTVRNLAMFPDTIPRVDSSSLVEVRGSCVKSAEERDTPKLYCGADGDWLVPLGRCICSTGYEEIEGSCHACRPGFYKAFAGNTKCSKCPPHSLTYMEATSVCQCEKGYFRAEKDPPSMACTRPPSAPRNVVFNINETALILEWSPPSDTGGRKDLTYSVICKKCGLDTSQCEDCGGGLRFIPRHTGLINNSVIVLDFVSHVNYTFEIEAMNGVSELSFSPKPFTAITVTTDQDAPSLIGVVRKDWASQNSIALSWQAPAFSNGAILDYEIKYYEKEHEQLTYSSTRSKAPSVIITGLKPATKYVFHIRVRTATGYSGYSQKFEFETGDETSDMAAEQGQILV
The assay is described as above. Type of assay: binding. To be noted: coated protein 1 nM.
Description: as §1, §2, §3, §4
Consider B1, for which the “hEphA6-SEAP-: absorbance at 450 nm, percentage with respect to hEphA4-SEAP-His as 100%” value is given as 6.2%.
On the same count and under the same terms, the figure for B2 is 6.4%; for B3 it is 7.5%; for B4 it is 8.6%.
On the same count and under the same terms, with B5 the figure was 7.6%.
Consider B6, for which the “hEphA6-SEAP-: absorbance at 450 nm, percentage with respect to hEphA4-SEAP-His as 100%” value came out at 8.4%.
Same read-out and setting: with B7 the figure was 8.8%.

The record behind these values is patent US10428140B2, “Anti-EphA4 antibody” (EISAI R&D MANAGEMENT CO., LTD., priority 2015, dated 2019).
